Measurements taken from patent US11325966.

Assays:
Experiment in all cases: cell-based or functional assay
[1] = target: HIV-1 Env of pseudovirus 0815.v3.c3 (HIV-1)
[2] = target: HIV-1 Env of pseudovirus 1012_11_TC21_3257 (HIV-1)
[3] = target: HIV-1 Env of pseudovirus 191955_A11 (HIV-1)
[4] = target: HIV-1 Env of pseudovirus 231965.c01 (HIV-1)
[5] = target: HIV-1 Env of pseudovirus 235-47 (HIV-1)
[6] = target: HIV-1 Env of pseudovirus 246F C1G (HIV-1)
[7] = target: HIV-1 Env of pseudovirus 3016.v5.c45 (HIV-1)
[8] = target: HIV-1 Env of pseudovirus 3817.v2.c59 (HIV-1)
[9] = target: HIV-1 Env of pseudovirus 6545.v4.c1 (HIV-1)
[10] = target: HIV-1 Env of pseudovirus 89-F1_2_25 (HIV-1)
[11] = target: HIV-1 Env of pseudovirus 9004SS_A3_4 (HIV-1)
[12] = target: HIV-1 Env of pseudovirus BJOX010000.06.2 (HIV-1)
[13] = target: HIV-1 Env of pseudovirus BJOX028000.10.3 (HIV-1)
[14] = target: HIV-1 Env of pseudovirus C1080.c03 (HIV-1)
[15] = target: HIV-1 Env of pseudovirus C2101.c01 (HIV-1)
[16] = target: HIV-1 Env of pseudovirus CAAN5342.A2 (HIV-1)
[17] = target: HIV-1 Env of pseudovirus CNE17 (HIV-1)
[18] = target: HIV-1 Env of pseudovirus CNE19 (HIV-1)
[19] = target: HIV-1 Env of pseudovirus CNE20 (HIV-1)
[20] = target: HIV-1 Env of pseudovirus CNE21 (HIV-1)
[21] = target: HIV-1 Env of pseudovirus CNE52 (HIV-1)
[22] = target: HIV-1 Env of pseudovirus Ce2010_F5 (HIV-1)
[23] = target: HIV-1 Env of pseudovirus Du172.17 (HIV-1)
[24] = target: HIV-1 Env of pseudovirus Du422.1 (HIV-1)
[25] = target: HIV-1 Env of pseudovirus HIV-0013095-2.11 (HIV-1)
[26] = target: HIV-1 Env of pseudovirus P0402_c2_11 (HIV-1)
[27] = target: HIV-1 Env of pseudovirus Q769.d22 (HIV-1)
[28] = target: HIV-1 Env of pseudovirus R1166.c01 (HIV-1)
[29] = target: HIV-1 Env of pseudovirus R2184.c04 (HIV-1)
[30] = target: HIV-1 Env of pseudovirus REJO4541.67 (HIV-1)
[31] = target: HIV-1 Env of pseudovirus T250-4 (HIV-1)
[32] = target: HIV-1 Env of pseudovirus T251-18 (HIV-1)
[33] = target: HIV-1 Env of pseudovirus THRO4156.18 (HIV-1)
[34] = target: HIV-1 Env of pseudovirus TRJO4551.58 (HIV-1)
[35] = target: HIV-1 Env of pseudovirus X2088_c9 (HIV-1)
[36] = target: HIV-1 Env of pseudovirus X2131_C1_B5 (HIV-1)
[37] = target: HIV-1 Env of pseudovirus ZM197M.PB7 (HIV-1)
[38] = target: HIV-1 Env of pseudovirus ZM214M.PL15 (HIV-1)
[39] = target: HIV-1 Env of pseudovirus ZM233M.PB6 (HIV-1)
[40] = target: HIV-1 Env of pseudovirus ZM53M.PB12 (HIV-1)

354BG8 (antibody)
IC50 in TZM-bl assay [1]: 0.043 µg/mL
IC80 in TZM-bl assay [1]: 0.197 µg/mL
IC50 in TZM-bl assay [2]: 0.011 µg/mL
IC80 in TZM-bl assay [2]: 0.047 µg/mL
IC50 in TZM-bl assay [3]: > 10 µg/mL
IC80 in TZM-bl assay [3]: > 10 µg/mL
IC50 in TZM-bl assay [4]: > 10 µg/mL
IC80 in TZM-bl assay [4]: > 10 µg/mL
IC50 in TZM-bl assay [5]: 0.058 µg/mL
IC80 in TZM-bl assay [5]: 0.224 µg/mL
IC50 in TZM-bl assay [6]: 0.035 µg/mL
IC80 in TZM-bl assay [6]: 0.119 µg/mL
IC50 in TZM-bl assay [7]: > 10 µg/mL
IC80 in TZM-bl assay [7]: > 10 µg/mL
IC50 in TZM-bl assay [8]: 0.706 µg/mL
IC80 in TZM-bl assay [8]: 4.49 µg/mL
IC50 in TZM-bl assay [9]: > 10 µg/mL
IC80 in TZM-bl assay [9]: > 10 µg/mL
IC50 in TZM-bl assay [10]: > 10 µg/mL
IC80 in TZM-bl assay [10]: > 10 µg/mL
IC50 in TZM-bl assay [11]: 0.012 µg/mL
IC80 in TZM-bl assay [11]: 0.032 µg/mL
IC50 in TZM-bl assay [12]: > 10 µg/mL
IC80 in TZM-bl assay [12]: > 10 µg/mL
IC50 in TZM-bl assay [13]: > 10 µg/mL
IC80 in TZM-bl assay [13]: > 10 µg/mL
IC50 in TZM-bl assay [14]: > 10 µg/mL
IC80 in TZM-bl assay [14]: > 10 µg/mL
IC50 in TZM-bl assay [15]: > 10 µg/mL
IC80 in TZM-bl assay [15]: > 10 µg/mL
IC50 in TZM-bl assay [16]: 0.005 µg/mL
IC80 in TZM-bl assay [16]: 0.019 µg/mL
IC50 in TZM-bl assay [17]: 1.18 µg/mL
IC80 in TZM-bl assay [17]: 4.85 µg/mL
IC50 in TZM-bl assay [18]: 0.075 µg/mL
IC80 in TZM-bl assay [18]: > 10 µg/mL
IC50 in TZM-bl assay [19]: 0.002 µg/mL
IC80 in TZM-bl assay [19]: 0.005 µg/mL
IC50 in TZM-bl assay [20]: 0.047 µg/mL
IC80 in TZM-bl assay [20]: 0.124 µg/mL
IC50 in TZM-bl assay [21]: 1.99 µg/mL
IC80 in TZM-bl assay [21]: 9.76 µg/mL
IC50 in TZM-bl assay [22]: > 10 µg/mL
IC80 in TZM-bl assay [22]: > 10 µg/mL
IC50 in TZM-bl assay [23]: 0.049 µg/mL
IC80 in TZM-bl assay [23]: 0.194 µg/mL
IC50 in TZM-bl assay [24]: 0.047 µg/mL
IC80 in TZM-bl assay [24]: 0.113 µg/mL
IC50 in TZM-bl assay [25]: > 10 µg/mL
IC80 in TZM-bl assay [25]: > 10 µg/mL
IC50 in TZM-bl assay [26]: 0.008 µg/mL
IC80 in TZM-bl assay [26]: 0.024 µg/mL
IC50 in TZM-bl assay [27]: > 10 µg/mL
IC80 in TZM-bl assay [27]: > 10 µg/mL
IC50 in TZM-bl assay [28]: > 10 µg/mL
IC80 in TZM-bl assay [28]: > 10 µg/mL
IC50 in TZM-bl assay [29]: > 10 µg/mL
IC80 in TZM-bl assay [29]: > 10 µg/mL
IC50 in TZM-bl assay [30]: > 10 µg/mL
IC80 in TZM-bl assay [30]: > 10 µg/mL
IC50 in TZM-bl assay [31]: 0.002 µg/mL
IC80 in TZM-bl assay [31]: 0.005 µg/mL
IC50 in TZM-bl assay [32]: 0.399 µg/mL
IC80 in TZM-bl assay [32]: 2.29 µg/mL
IC50 in TZM-bl assay [33]: > 10 µg/mL
IC80 in TZM-bl assay [33]: > 10 µg/mL
IC50 in TZM-bl assay [34]: 0.057 µg/mL
IC80 in TZM-bl assay [34]: 0.218 µg/mL
IC50 in TZM-bl assay [35]: 0.003 µg/mL
IC80 in TZM-bl assay [35]: 0.01 µg/mL
IC50 in TZM-bl assay [36]: 0.014 µg/mL
IC80 in TZM-bl assay [36]: 0.056 µg/mL
IC50 in TZM-bl assay [37]: > 10 µg/mL
IC80 in TZM-bl assay [37]: > 10 µg/mL
IC50 in TZM-bl assay [38]: 0.415 µg/mL
IC80 in TZM-bl assay [38]: 2.97 µg/mL
IC50 in TZM-bl assay [39]: 0.058 µg/mL
IC80 in TZM-bl assay [39]: 0.371 µg/mL
IC50 in TZM-bl assay [40]: > 10 µg/mL
IC80 in TZM-bl assay [40]: > 10 µg/mL

BG18 IgG (354BG18) (antibody)
IC50 in TZM-bl assay [1]: 0.16 µg/mL
IC80 in TZM-bl assay [1]: 5.96 µg/mL
IC50 in TZM-bl assay [2]: 0.003 µg/mL
IC80 in TZM-bl assay [2]: 0.012 µg/mL
IC50 in TZM-bl assay [3]: > 30 µg/mL
IC80 in TZM-bl assay [3]: > 30 µg/mL
IC50 in TZM-bl assay [4]: > 30 µg/mL
IC80 in TZM-bl assay [4]: > 30 µg/mL
IC50 in TZM-bl assay [5]: 0.005 µg/mL
IC80 in TZM-bl assay [5]: 0.017 µg/mL
IC50 in TZM-bl assay [6]: 0.034 µg/mL
IC80 in TZM-bl assay [6]: 0.257 µg/mL
IC50 in TZM-bl assay [7]: > 30 µg/mL
IC80 in TZM-bl assay [7]: > 30 µg/mL
IC50 in TZM-bl assay [8]: 0.219 µg/mL
IC80 in TZM-bl assay [8]: 1.06 µg/mL
IC50 in TZM-bl assay [9]: > 30 µg/mL
IC80 in TZM-bl assay [9]: > 30 µg/mL
IC50 in TZM-bl assay [10]: > 30 µg/mL
IC80 in TZM-bl assay [10]: > 30 µg/mL
IC50 in TZM-bl assay [11]: 0.005 µg/mL
IC80 in TZM-bl assay [11]: 0.056 µg/mL
IC50 in TZM-bl assay [12]: > 30 µg/mL
IC80 in TZM-bl assay [12]: > 30 µg/mL
IC50 in TZM-bl assay [13]: 0.474 µg/mL
IC80 in TZM-bl assay [13]: 14.9 µg/mL
IC50 in TZM-bl assay [14]: 5.37 µg/mL
IC80 in TZM-bl assay [14]: > 30 µg/mL
IC50 in TZM-bl assay [15]: > 30 µg/mL
IC80 in TZM-bl assay [15]: > 30 µg/mL
IC50 in TZM-bl assay [16]: 0.008 µg/mL
IC80 in TZM-bl assay [16]: 0.04 µg/mL
IC50 in TZM-bl assay [17]: 0.02 µg/mL
IC80 in TZM-bl assay [17]: 0.109 µg/mL
IC50 in TZM-bl assay [18]: > 30 µg/mL
IC80 in TZM-bl assay [18]: > 30 µg/mL
IC50 in TZM-bl assay [19]: 0.002 µg/mL
IC80 in TZM-bl assay [19]: 0.006 µg/mL
IC50 in TZM-bl assay [20]: 0.002 µg/mL
IC80 in TZM-bl assay [20]: 0.007 µg/mL
IC50 in TZM-bl assay [21]: 0.012 µg/mL
IC80 in TZM-bl assay [21]: 0.045 µg/mL
IC50 in TZM-bl assay [22]: > 30 µg/mL
IC80 in TZM-bl assay [22]: > 30 µg/mL
IC50 in TZM-bl assay [23]: > 30 µg/mL
IC80 in TZM-bl assay [23]: > 30 µg/mL
IC50 in TZM-bl assay [24]: 0.009 µg/mL
IC80 in TZM-bl assay [24]: 0.057 µg/mL
IC50 in TZM-bl assay [25]: 10.5 µg/mL
IC80 in TZM-bl assay [25]: 30 µg/mL
IC50 in TZM-bl assay [26]: 0.005 µg/mL
IC80 in TZM-bl assay [26]: 0.029 µg/mL
IC50 in TZM-bl assay [27]: > 30 µg/mL
IC80 in TZM-bl assay [27]: > 30 µg/mL
IC50 in TZM-bl assay [28]: > 30 µg/mL
IC80 in TZM-bl assay [28]: > 30 µg/mL
IC50 in TZM-bl assay [29]: > 30 µg/mL
IC80 in TZM-bl assay [29]: > 30 µg/mL
IC50 in TZM-bl assay [30]: > 30 µg/mL
IC80 in TZM-bl assay [30]: > 30 µg/mL
IC80 in TZM-bl assay [31]: 0.006 µg/mL
IC50 in TZM-bl assay [32]: 0.086 µg/mL
IC80 in TZM-bl assay [32]: 0.328 µg/mL
IC50 in TZM-bl assay [33]: > 30 µg/mL
IC80 in TZM-bl assay [33]: > 30 µg/mL
IC50 in TZM-bl assay [34]: 3.34 µg/mL
IC80 in TZM-bl assay [34]: 26.9 µg/mL
IC50 in TZM-bl assay [35]: 0.004 µg/mL
IC80 in TZM-bl assay [35]: 0.009 µg/mL
IC50 in TZM-bl assay [36]: 0.002 µg/mL
IC80 in TZM-bl assay [36]: 0.008 µg/mL
IC50 in TZM-bl assay [37]: > 30 µg/mL
IC80 in TZM-bl assay [37]: > 30 µg/mL
IC50 in TZM-bl assay [38]: > 30 µg/mL
IC80 in TZM-bl assay [38]: > 30 µg/mL
IC50 in TZM-bl assay [39]: 2.87 µg/mL
IC80 in TZM-bl assay [39]: 29.8 µg/mL
IC50 in TZM-bl assay [40]: > 30 µg/mL
IC80 in TZM-bl assay [40]: > 30 µg/mL
